B1: RNF115 peptide 67-82 (E3 ubiquitin-protein ligase RNF115), 16-mer library wild type / MDM2 SWIB (MDM2 SWIB/MDM2 domain, residues 17-125) (parent complex)
chain 1: TTTHFAELWGHLDHTM
chain 2: SQIPASEQETLVRPKPLLLKLLKSVGAQKDTYTMKEVLFYLGQYIMTKRLYDEKQQHIVYCSNDLLGDLFGVPSFSVKEHRKIYTMIYRNLVVVNQQESSDSGTSVSEN
B2: PEX5 peptide 110-125 (Peroxisomal targeting signal 1 receptor), 16-mer library wild type / PEX14 Pex14 (PEX14 PEX14, residues 16-84) (parent complex)
chain 1: ADLALSENWAQEFLAA
chain 2: TPGSENVLPREPLIATAVKFLQNSRVRQSPLATRRAFLKKKGLTDEEIDMAFQQSGTAADEPSSLGPAT

Variants of: B1
Experiment: proteomic peptide phage display deep mutational scan (ProP-PD DMS): M13 P8 16-mer library selected against immobilised GST-tagged bait for four days (rounds), NGS of the eluted pools per day and pseudo-replica; bait immobilised on MaxiSorp plates (10 µg), library pre-cleared on GST, 2 h binding at 4 °C, five washes; one round per day, days 1-4; value from days 2 and 3
With chain 1 H11G the screen value was 0.000565 average fractional NGS count over selection days 2 and 3 (reads of this peptide / all reads for the bait, averaged over …. For chain 1 H11V, the screen value was 0.00167 average fractional NGS count over selection days 2 and 3 (reads of this peptide / all reads for the bait, averaged over …. For chain 1 H11Q, the screen value was 0.00312 average fractional NGS count over selection days 2 and 3 (reads of this peptide / all reads for the bait, averaged over …. With chain 1 H11E the screen value was 0.000714 average fractional NGS count over selection days 2 and 3 (reads of this peptide / all reads for the bait, averaged over …. In the case of chain 1 H11M, the screen value is reported as 0.00257 average fractional NGS count over selection days 2 and 3 (reads of this peptide / all reads for the bait, averaged over …. In the case of chain 1 H11F, the screen value is reported as 0.00626 average fractional NGS count over selection days 2 and 3 (reads of this peptide / all reads for the bait, averaged over …. With chain 1 H11Y the screen value was 0.00946 average fractional NGS count over selection days 2 and 3 (reads of this peptide / all reads for the bait, averaged over …. chain 1 H11S was tested, and the screen value was 0.000392 average fractional NGS count over selection days 2 and 3 (reads of this peptide / all reads for the bait, averaged over …. In the case of chain 1 H11N, the screen value is reported as 0.000176 average fractional NGS count over selection days 2 and 3 (reads of this peptide / all reads for the bait, averaged over …. In the case of chain 1 H11W, the screen value is reported as 0.00259 average fractional NGS count over selection days 2 and 3 (reads of this peptide / all reads for the bait, averaged over …. chain 1 H11T was tested, and the screen value was 0.00102 average fractional NGS count over selection days 2 and 3 (reads of this peptide / all reads for the bait, averaged over …. With chain 1 H11K the screen value was 0.000921 average fractional NGS count over selection days 2 and 3 (reads of this peptide / all reads for the bait, averaged over …. For chain 1 H11I, the screen value was 0.000552 average fractional NGS count over selection days 2 and 3 (reads of this peptide / all reads for the bait, averaged over …. chain 1 H11D was tested, and the screen value was 0.00024 average fractional NGS count over selection days 2 and 3 (reads of this peptide / all reads for the bait, averaged over …. For chain 1 H11A, the screen value was 0.0021 average fractional NGS count over selection days 2 and 3 (reads of this peptide / all reads for the bait, averaged over …. chain 1 T15D was tested, and the screen value was 0.000245 average fractional NGS count over selection days 2 and 3 (reads of this peptide / all reads for the bait, averaged over …. In the case of chain 1 T15S, the screen value is reported as 0.000189 average fractional NGS count over selection days 2 and 3 (reads of this peptide / all reads for the bait, averaged over …. With chain 1 T15L the screen value was 7.38e-05 average fractional NGS count over selection days 2 and 3 (reads of this peptide / all reads for the bait, averaged over …. With chain 1 T15W the screen value was 0.00561 average fractional NGS count over selection days 2 and 3 (reads of this peptide / all reads for the bait, averaged over …. With chain 1 T15M the screen value was 0.00385 average fractional NGS count over selection days 2 and 3 (reads of this peptide / all reads for the bait, averaged over …. With chain 1 T15A the screen value was 0.000886 average fractional NGS count over selection days 2 and 3 (reads of this peptide / all reads for the bait, averaged over …. With chain 1 T15Y the screen value was 0.00205 average fractional NGS count over selection days 2 and 3 (reads of this peptide / all reads for the bait, averaged over …. For chain 1 T15H, the screen value was 0.000116 average fractional NGS count over selection days 2 and 3 (reads of this peptide / all reads for the bait, averaged over …. With chain 1 T15F the screen value was 0.00191 average fractional NGS count over selection days 2 and 3 (reads of this peptide / all reads for the bait, averaged over …. chain 1 T15G was tested, and the screen value was 0.0009 average fractional NGS count over selection days 2 and 3 (reads of this peptide / all reads for the bait, averaged over …. With chain 1 T15V the screen value was 0.00407 average fractional NGS count over selection days 2 and 3 (reads of this peptide / all reads for the bait, averaged over …. For chain 1 A6S, the screen value was 0.000754 average fractional NGS count over selection days 2 and 3 (reads of this peptide / all reads for the bait, averaged over …. With chain 1 A6W the screen value was 0.000676 average fractional NGS count over selection days 2 and 3 (reads of this peptide / all reads for the bait, averaged over …. In the case of chain 1 A6L, the screen value is reported as 0.00496 average fractional NGS count over selection days 2 and 3 (reads of this peptide / all reads for the bait, averaged over …. chain 1 A6I was tested, and the screen value was 0.000155 average fractional NGS count over selection days 2 and 3 (reads of this peptide / all reads for the bait, averaged over …. In the case of chain 1 A6H, the screen value is reported as 0.00017 average fractional NGS count over selection days 2 and 3 (reads of this peptide / all reads for the bait, averaged over …. In the case of chain 1 A6E, the screen value is reported as 0.000746 average fractional NGS count over selection days 2 and 3 (reads of this peptide / all reads for the bait, averaged over …. With chain 1 A6Q the screen value was 0.000266 average fractional NGS count over selection days 2 and 3 (reads of this peptide / all reads for the bait, averaged over …. For chain 1 A6M, the screen value was 0.00215 average fractional NGS count over selection days 2 and 3 (reads of this peptide / all reads for the bait, averaged over …. chain 1 H14Y was tested, and the screen value was 0.00813 average fractional NGS count over selection days 2 and 3 (reads of this peptide / all reads for the bait, averaged over …. With chain 1 H14W the screen value was 0.00227 average fractional NGS count over selection days 2 and 3 (reads of this peptide / all reads for the bait, averaged over …. chain 1 H14E was tested, and the screen value was 9.03e-05 average fractional NGS count over selection days 2 and 3 (reads of this peptide / all reads for the bait, averaged over …. With chain 1 H14S the screen value was 0.00046 average fractional NGS count over selection days 2 and 3 (reads of this peptide / all reads for the bait, averaged over …. chain 1 H14T was tested, and the screen value was 0.000601 average fractional NGS count over selection days 2 and 3 (reads of this peptide / all reads for the bait, averaged over …. For chain 1 H14V, the screen value was 0.00211 average fractional NGS count over selection days 2 and 3 (reads of this peptide / all reads for the bait, averaged over …. With chain 1 H14I the screen value was 0.00129 average fractional NGS count over selection days 2 and 3 (reads of this peptide / all reads for the bait, averaged over …. For chain 1 H14G, the screen value was 0.00396 average fractional NGS count over selection days 2 and 3 (reads of this peptide / all reads for the bait, averaged over …. In the case of chain 1 H14N, the screen value is reported as 0.00027 average fractional NGS count over selection days 2 and 3 (reads of this peptide / all reads for the bait, averaged over …. chain 1 H14M was tested, and the screen value was 0.00126 average fractional NGS count over selection days 2 and 3 (reads of this peptide / all reads for the bait, averaged over …. In the case of chain 1 H14A, the screen value is reported as 0.00138 average fractional NGS count over selection days 2 and 3 (reads of this peptide / all reads for the bait, averaged over …. In the case of chain 1 H14L, the screen value is reported as 0.00317 average fractional NGS count over selection days 2 and 3 (reads of this peptide / all reads for the bait, averaged over …. In the case of chain 1 H14Q, the screen value is reported as 0.000199 average fractional NGS count over selection days 2 and 3 (reads of this peptide / all reads for the bait, averaged over …. With chain 1 H14P the screen value was 0.000471 average fractional NGS count over selection days 2 and 3 (reads of this peptide / all reads for the bait, averaged over …. With chain 1 H14F the screen value was 0.00117 average fractional NGS count over selection days 2 and 3 (reads of this peptide / all reads for the bait, averaged over …. For chain 1 T2I, the screen value was 0.00157 average fractional NGS count over selection days 2 and 3 (reads of this peptide / all reads for the bait, averaged over …. chain 1 T2E was tested, and the screen value was 0.0056 average fractional NGS count over selection days 2 and 3 (reads of this peptide / all reads for the bait, averaged over …. With chain 1 T2Q the screen value was 0.00139 average fractional NGS count over selection days 2 and 3 (reads of this peptide / all reads for the bait, averaged over …. chain 1 T2H was tested, and the screen value was 0.000527 average fractional NGS count over selection days 2 and 3 (reads of this peptide / all reads for the bait, averaged over …. chain 1 T2M was tested, and the screen value was 0.000321 average fractional NGS count over selection days 2 and 3 (reads of this peptide / all reads for the bait, averaged over …. In the case of chain 1 T2A, the screen value is reported as 0.00136 average fractional NGS count over selection days 2 and 3 (reads of this peptide / all reads for the bait, averaged over …. With chain 1 T2V the screen value was 0.000589 average fractional NGS count over selection days 2 and 3 (reads of this peptide / all reads for the bait, averaged over …. With chain 1 T2S the screen value was 0.000484 average fractional NGS count over selection days 2 and 3 (reads of this peptide / all reads for the bait, averaged over …. In the case of chain 1 T2L, the screen value is reported as 0.000556 average fractional NGS count over selection days 2 and 3 (reads of this peptide / all reads for the bait, averaged over …. In the case of chain 1 T2G, the screen value is reported as 0.00135 average fractional NGS count over selection days 2 and 3 (reads of this peptide / all reads for the bait, averaged over …. With chain 1 T2D the screen value was 0.00164 average fractional NGS count over selection days 2 and 3 (reads of this peptide / all reads for the bait, averaged over …. For chain 1 T2Y, the screen value was 0.000215 average fractional NGS count over selection days 2 and 3 (reads of this peptide / all reads for the bait, averaged over …. In the case of chain 1 L8F, the screen value is reported as 0.000568 average fractional NGS count over selection days 2 and 3 (reads of this peptide / all reads for the bait, averaged over …. In the case of chain 1 L8I, the screen value is reported as 7.89e-05 average fractional NGS count over selection days 2 and 3 (reads of this peptide / all reads for the bait, averaged over …. For chain 1 L8Y, the screen value was 0.0291 average fractional NGS count over selection days 2 and 3 (reads of this peptide / all reads for the bait, averaged over …. For chain 1 L8H, the screen value was 0.000131 average fractional NGS count over selection days 2 and 3 (reads of this peptide / all reads for the bait, averaged over …. chain 1 L8M was tested, and the screen value was 0.000104 average fractional NGS count over selection days 2 and 3 (reads of this peptide / all reads for the bait, averaged over …. chain 1 L8W was tested, and the screen value was 0.00339 average fractional NGS count over selection days 2 and 3 (reads of this peptide / all reads for the bait, averaged over …. For chain 1 F5T, the screen value was 7.7e-05 average fractional NGS count over selection days 2 and 3 (reads of this peptide / all reads for the bait, averaged over …. In the case of chain 1 F5Y, the screen value is reported as 0.0001 average fractional NGS count over selection days 2 and 3 (reads of this peptide / all reads for the bait, averaged over …. In the case of chain 1 F5Q, the screen value is reported as 0.00091 average fractional NGS count over selection days 2 and 3 (reads of this peptide / all reads for the bait, averaged over …. For chain 1 F5S, the screen value was 0.000118 average fractional NGS count over selection days 2 and 3 (reads of this peptide / all reads for the bait, averaged over ….

Variants of: B2
Experiment: as above
For chain 1 L14K, the screen value was 0.000342 average fractional NGS count over selection days 2 and 3 (reads of this peptide / all reads for the bait, averaged over …. With chain 1 S6H the screen value was 0.00186 average fractional NGS count over selection days 2 and 3 (reads of this peptide / all reads for the bait, averaged over …. For chain 1 D2Y, the screen value was 0.000446 average fractional NGS count over selection days 2 and 3 (reads of this peptide / all reads for the bait, averaged over …. In the case of chain 1 A10W, the screen value is reported as 0.00181 average fractional NGS count over selection days 2 and 3 (reads of this peptide / all reads for the bait, averaged over ….
